Data: paper PMC1483224

Target: T1, MutS (Escherichia coli, UniProt P23909 1-853)
T1 sequence: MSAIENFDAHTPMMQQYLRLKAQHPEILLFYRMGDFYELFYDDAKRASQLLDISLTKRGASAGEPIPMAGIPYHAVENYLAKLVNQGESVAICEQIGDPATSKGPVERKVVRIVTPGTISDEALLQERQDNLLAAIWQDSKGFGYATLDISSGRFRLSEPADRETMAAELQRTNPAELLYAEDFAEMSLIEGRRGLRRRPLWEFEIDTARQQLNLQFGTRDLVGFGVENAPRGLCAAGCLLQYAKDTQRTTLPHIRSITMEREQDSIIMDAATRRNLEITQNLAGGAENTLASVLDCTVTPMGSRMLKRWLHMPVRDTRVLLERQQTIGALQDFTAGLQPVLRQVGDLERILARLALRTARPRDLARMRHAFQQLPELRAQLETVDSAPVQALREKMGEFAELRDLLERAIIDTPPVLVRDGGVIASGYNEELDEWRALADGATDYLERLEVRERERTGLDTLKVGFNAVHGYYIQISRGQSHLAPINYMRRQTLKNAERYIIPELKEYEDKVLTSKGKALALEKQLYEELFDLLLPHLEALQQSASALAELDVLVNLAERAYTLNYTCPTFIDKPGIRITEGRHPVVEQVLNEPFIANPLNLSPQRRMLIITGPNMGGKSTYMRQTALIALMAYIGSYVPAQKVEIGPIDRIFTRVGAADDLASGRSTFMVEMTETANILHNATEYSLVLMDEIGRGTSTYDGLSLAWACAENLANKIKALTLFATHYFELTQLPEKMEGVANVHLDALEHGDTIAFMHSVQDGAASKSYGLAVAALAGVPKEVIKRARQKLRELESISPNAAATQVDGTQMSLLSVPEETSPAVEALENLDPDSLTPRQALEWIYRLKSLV
Assay: impedance spectroscopy, CV

| Binder | binding signal |
| --- | --- |
| CT heteroduplex (dsDNA) DNA 1: GACGAGCCGCCCGCTAGCGTCG DNA 2: CGACGCTAGCGTGCGGCTCGTC | 1680 Ohm/cm (Rct calibration slope as printed) |
| CC heteroduplex (dsDNA) DNA 1: GACGAGCCGCCCGCTAGCGTCG DNA 2: CGACGCTAGCGCGCGGCTCGTC | 1050 Ohm/cm (Rct calibration slope as printed) |
| GT heteroduplex (dsDNA) DNA 1: GACGAGCCGCGCGCTAGCGTCG DNA 2: CGACGCTAGCGTGCGGCTCGTC | 3380 Ohm/cm (Rct calibration slope as printed) |
